Reference: EP3988566A1

Target: soluble polymeric amyloid beta (UniProt P05067)
Experiment: ELISA, plate coated with amyloid oligomer (55 µg/ml), anti-mouse IgG-AP detection

soluble polymeric amyloid beta, sequence (P05067 672-713): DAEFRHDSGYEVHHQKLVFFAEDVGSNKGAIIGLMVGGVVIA

B1: mouse monoclonal antibody ACI-01-Ab7C2 (antibody, mouse IgG2b, V domains shown)
VH: EVQLVESGGGLVQPGGSLKLSCAASGFTFSSYGMSWVRQTPDKRLELVASINSNGGSTYYPDSVKGRFTISRDNAKNTLYLQMSSLKSEDTAMYYCASGDYWGQGSTLTVSS
VL: DVVMTQTPLSLPVSLGDQASISCRSSQSLVYSNGDTYLHWYLQKPGQSPKLLIYKVSNRFSGVPDRFSGSGSGTDFTLKISRVEAEDLGVYFCSQSTHVPWTFGGGTKLEIK
Question: What does the source list for B1?
Answer: O.D. at 0.078 ug/ml antibody: 0.652 O.D.; O.D. at 0.156 ug/ml antibody: 1.04 O.D.; O.D. at 0.312 ug/ml antibody: 1.72 O.D.; O.D. at 0.625 ug/ml antibody: 2.81 O.D.
